Here are results for 31 sequences from the supplement of paper PMC9170038.

This data set deals with MS2 coat protein. The data set can be described thus: apparent KD of MS2 coat protein; designed switch direction (-1 OFF switch, 1 ON switch): -1; higher = weaker reporter binding. The essentials: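 Designed RNA switches were transcribed on Illumina chips by stalled E. coli RNA polymerase and titrated with SNAP-549-labelled MS2 coat protein from 0.7 or 1.5 nM, doubling to 3 µM. Step length ran from 0.8–1.5 h at the lowest concentration to 10–20 min at the highest. The apparent KD is the median over clusters for each design, from curve-fitted normalised cluster fluorescence.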

[1] abbreviates: input ligand: microRNA oligo, concentration not stated.
Where [2] appears, read: Eterna round: R95, input ligand: microRNA oligo, concentration not stated.
[3] abbreviates: Eterna round: R95, input ligand: FMN 200 uM.
The mark [4] stands for this setting: Eterna round: R95, input ligand: none.

With “ACCUUACUGGUCAGGAUAUACAGUCUUUGGUGUGUGUAGAAGGGACAUGAGGAUCACCCAUGUAGGUUGUUUUA [alecazam62b] (Eterna round: R97, puzzle: Brourd's mod of Exclusion 4)”, the “apparent KD of MS2 coat protein” value by setting is: (input ligand: FMN 200 uM) 237 nM; (input ligand: none) 165 nM.

As for “CACAAAGUAGGAUAUAGAAUAAAAGACAUGAGGAUCACCCAUGUGUCGUUCAAGGUGAACCUAGAAGGACUGAAAA [EX5 A.28] (Eterna round: R97, puzzle: Exclusion 5)”, the “apparent KD of MS2 coat protein” value worked out at 45.1 nM (input ligand: FMN 200 uM) and 116 nM (input ligand: none).

On to “ACAAGAUCGGAAGGAUAUUGUACAUGAGGAUCACCCAUGUAAUAAAUGAGGAUCACGGAUGUAGUCAAGAAGGUCCGGAUAAGA [Ostracism 3 - Jieux - Exclusion NG 2] (Eterna round: R96, puzzle: Exclusion NG 2)”, for which the “apparent KD of MS2 coat protein” value runs as follows: (input ligand: FMN 200 uM) 36.9 nM; under setting [1], 41.2 nM; (input ligand: none) 43.8 nM.

Consider “GAUUUAGAGCAGGAUAUCAUAGAAUUGUAUGAAUGAGAAGGGCUCACAUGAGGAUCACCCAUGUGGUCCUAGAU [JL Dibiri mod 21] (puzzle: Exclusion 6)”, for which, under setting [2], the “apparent KD of MS2 coat protein” value worked out at 21.7 nM.

Regarding “ACAUGAGGAUCACCCAUGUUUGGCUGGUCGUCUCCGGCUGUCGAGGAUAUAGUACGGUAUCCGCGCUAGAAGGUGAGGGCCGGC [Raxeorer] (Eterna round: R96, puzzle: Exclusion NG 3)”, the “apparent KD of MS2 coat protein” value is, setting by setting: (input ligand: FMN 200 uM) 11.5 nM; under setting [1], 14.6 nM; (input ligand: none) 19.3 nM.

For “UACAUGAGGAUCACCCAUGUUUUGUCGUGUAUGGUAUUUAUCUAGGAUAUCAAUUUAGUUAUGUAUGAGAAGGAGAAUAUUAAU [JMF's solution 78] (Eterna round: R96, puzzle: Exclusion NG 3)”, the “apparent KD of MS2 coat protein” value is 43.7 nM (input ligand: FMN 200 uM), 33.9 nM under setting [1] and 46.4 nM (input ligand: none).

Turning to “CUUUUGUGAGGAUAUUAGUAGUAAAUAAAUAAAAUUACUUCUGAGAAGGCACAUGAGGAUCACCCAUGUUCCUC [salish99_ex4_r3_063] (puzzle: Exclusion 4)”, under setting [2], the “apparent KD of MS2 coat protein” value was 36.9 nM.

For the sequence “AUGAGACAUGAGGAUCACCCAUGUGAGGAUAUGUAUGGAUGGAGGAAAGAAUGAGAGAACAGAAGGCACGGAGG [JR_Exclu1_Sub065] (puzzle: Exclusion 1)”, the “apparent KD of MS2 coat protein” value runs as follows: under setting [3], 70.7 nM; under setting [2], 72.7 nM; under setting [4], 112 nM.

Consider “AGUCCACAUGAGGAUCACCCAUGUCAGGAUAUACGCAAUACAAAAGAACCCAUCAAAAGUAGAAGGGACAGGGA [Getequ] (puzzle: Exclusion 1)”, for which the “apparent KD of MS2 coat protein” value under setting [3] came to 13.5 nM, the “apparent KD of MS2 coat protein” value under setting [2] turned out to be 10 nM and the “apparent KD of MS2 coat protein” value under setting [4] turned out to be 9.06 nM.

On to “AAAUUGUGAGGAUAUCCAAUAUAUGACAUGAGGAUCACCCAUGUUUCCACUCGUACCUCCGGAGAAGGCACUUAAA [Ex5 #44] (Eterna round: R97, puzzle: Exclusion 5)”, for which the “apparent KD of MS2 coat protein” value (input ligand: FMN 200 uM) stood at 27.1 nM and the “apparent KD of MS2 coat protein” value (input ligand: none) amounted to 25.5 nM.

As to “AUAUUACAUGAGGAUCACCCAUGUGAGGAUAUGGAGAGAGACCGCCCGGUCGCGUACACCAGAAGGCGCAGGCG [1st #60] (Eterna round: R97, puzzle: Exclusion 1)”, the “apparent KD of MS2 coat protein” value turned out to be 19.8 nM (input ligand: FMN 200 uM) and 21.2 nM (input ligand: none).

In the case of “GCAAGCUUUUGCUCGUCUUACAUGAGGAUCACCCAUGUCGGGCCCGGGCUUCGUGGCCGGGCCCGCCGGGCGCCGGG [-37, -64.6 kcal, A 10%] (Eterna round: R97, puzzle: Sensor, turn-off variant 1)”, the “apparent KD of MS2 coat protein” value by setting is: (input ligand: FMN 200 uM) 56.5 nM; (input ligand: none) 70.4 nM.

For the sequence “GGAUAGUGAGGAUAUCGAUGUUAGGAGGAGGAGGUAGGAGGCGAGAAGGCACAUGAGGAUCACCCAUGUAUGGU [JR_Exclu4_Sub069] (puzzle: Exclusion 4)”, the “apparent KD of MS2 coat protein” value under setting [2] came to 28.2 nM.

In the case of “AAAAGCGUCACAGGAUAUUCAGGCGACGCCAAAGAAGAAGGGUGAGGCACAAACAUGAGGAUCACCCAUGUGGUCCUCUCCCGA [Vebiquti] (Eterna round: R96, puzzle: Exclusion NG 1)”, the “apparent KD of MS2 coat protein” value is 19.2 nM (input ligand: FMN 200 uM), 11 nM under setting [1] and 15.6 nM (input ligand: none).

“CAAGCUUUGCGAGGAUAUGAUGGCCUAUAUGCCUCAGAAGGCGCAGAAACUUGAGGAUCACCCAAGUGAUGCAAAUACGAAAAU [Mutated MS2 EX1.9] (Eterna round: R96, puzzle: Exclusion NG 1)”: the “apparent KD of MS2 coat protein” value was found to be 78.1 nM (input ligand: FMN 200 uM), 17.3 nM under setting [1] and 21.8 nM (input ligand: none).

As to “GUUGUUUAUGUAGGAUAUGCGAGGCGAGCCUAAGCAGAAGGACAUGAGGAUCACCCAUGUAUUGCGGUCUGCGUUCAGAUCGCU [salish99_ExNG1_r4_016] (Eterna round: R96, puzzle: Exclusion NG 1)”, the “apparent KD of MS2 coat protein” value runs as follows: (input ligand: FMN 200 uM) 183 nM; under setting [1], 19.2 nM; (input ligand: none) 26.9 nM.

As to “UAUAUAUAGUAAGGAUAUGUAAUUUUUUUAUAAACAGAAGGUACUGACAUGAGGAUCACCCAUGUUUUAGUGUGGGCAUGUAGA [JMF's solution 32] (Eterna round: R96, puzzle: Exclusion NG 1)”, the “apparent KD of MS2 coat protein” value under setting [1] came out at 78.3 nM.

In the case of “GAAUUCCGAGGAUAUUCGGAACCAGACAUGAGGAUCACCCAUGUGAUGCAGUUUCCGUUCGAAGAAGGUGGAACGC [Eternabot (Original) Solution 28] (Eterna round: R97, puzzle: Exclusion 5)”, the “apparent KD of MS2 coat protein” value is 22.5 nM (input ligand: FMN 200 uM) and 23.3 nM (input ligand: none).

For the sequence “AAAUACGCUGAGGAUAUGCGGCGCACAAAAUAAGCAGAAGGCAGCACUUGAGGAUCACCCAAGUGGCCCGAGAA [Enusrees] (Eterna round: R97, puzzle: Exclusion 6)”, the “apparent KD of MS2 coat protein” value by setting is: (input ligand: FMN 200 uM) 15.5 nM; (input ligand: none) 8 nM.

“GGCAGACAUGAGGAUCACCCAUGUGAGGAUAUGGUGCGAUCGUCGAUAGACGAUAGCACCAGAAGGCACAUGCC [Mat - Exclusion 1 - Eli Mod - D4] (Eterna round: R97, puzzle: Exclusion 1)”: the “apparent KD of MS2 coat protein” value (input ligand: FMN 200 uM) worked out at 159 nM and the “apparent KD of MS2 coat protein” value (input ligand: none) stood at 34.5 nM.

Regarding “AGAUGCUCAAGUCGACAUGAGGAUCACCCAUGUACAAUUAACGAGGAUAUCCGAGAUAAAUAAUAGGAGAAGGCGUGAUCAUGA [Mat - Exclusion NG 3 - Mod of JL - D54] (Eterna round: R96, puzzle: Exclusion NG 3)”, the “apparent KD of MS2 coat protein” value (input ligand: FMN 200 uM) was determined as 66.2 nM, the “apparent KD of MS2 coat protein” value under setting [1] was 110 nM and the “apparent KD of MS2 coat protein” value (input ligand: none) turned out to be 470 nM.

As to “ACCUCCGCGAAGGAUAUUAGCACAUUGACAGAUUGAGAAGGUCGCACAUGAGGAUCACCCAUGUGAGGUCAUCC [Eternabot (L1) Solution 82] (Eterna round: R97, puzzle: Exclusion 6)”, the “apparent KD of MS2 coat protein” value runs as follows: (input ligand: FMN 200 uM) 19.3 nM; (input ligand: none) 21.5 nM.

With “CCCGGGAGUCAGGAUAUCUCCGAGGAGUAUCAGAGAGAAGGGACUACUUGAGGAUCACCCAAGUAGGUGUAAAA [Enleteerre] (Eterna round: R97, puzzle: Exclusion 6)”, the “apparent KD of MS2 coat protein” value by setting is: (input ligand: FMN 200 uM) 28.8 nM; (input ligand: none) 20.2 nM.

On to “UUGUUGUAUGUAGGAUAUGCAUAUUAUUAUUGUGCAGAAGGACAUGAGGAUCACCCAUGUAUAUUAUUAUUAUAUGUUAUAUAU [Title] (Eterna round: R96, puzzle: Exclusion NG 1)”, for which the “apparent KD of MS2 coat protein” value under setting [1] was 22.1 nM.

On to “GUGUGUGAUGUAGGAUAUACGAGACAUGAGGAUCACCCAUGUGAGGGAAGGAGAAGGAGAAGAGAGUAGAAGGAUAGAGUGUGA [Default title] (Eterna round: R96, puzzle: Exclusion NG 2)”, for which the “apparent KD of MS2 coat protein” value runs as follows: (input ligand: FMN 200 uM) 133 nM; under setting [1], 144 nM; (input ligand: none) 131 nM.

As to “CAGUACUGCAGGCUUUGGGACAUGAGGAUCACCCAUGUUCGUCUUAUUGAUCUAGGUACGCUGACGUACCUAGAUCU [JL-sv1-2.14 Brourd mod] (puzzle: Sensor v3, turn-off variant 1)”, the “apparent KD of MS2 coat protein” value reads like this: under setting [3], 18.8 nM; under setting [2], 20 nM; under setting [4], 17.6 nM.

With “GGUCUGCGAGGAUAUACAUGAGGAUCACCCAUGUGCGAGAAACUAGUGAGGUCGAUUGGUAGAAGGCGCGGACG [Mat - Exclusion 3 - Mod of JL D83] (puzzle: Exclusion 3)”, the “apparent KD of MS2 coat protein” value came to 74.1 nM under setting [3], 113 nM under setting [2] and 210 nM under setting [4].

Take “AAAAAGUCAGGAUAUGUAGCAAAAGGUGAUCAAAAAAAGCUACAGAAGGGACAUGAGGAUCACCCAUGUAAAAA [Ex4: 937] (Eterna round: R96, puzzle: Exclusion 4)”: the “apparent KD of MS2 coat protein” value by setting is: (input ligand: FMN 200 uM) 284 nM; under setting [1], 162 nM; (input ligand: none) 183 nM.

Take “CCGAAAAGGAAGGAUAUGCUAGACGAAAGUCUAGCAGAAGGUCCUACAUGAGGAUCACCCAUGUGUCCUAUCGG [Mat - Exclusion 6 - Eli Mod - D39] (Eterna round: R97, puzzle: Exclusion 6)”: the “apparent KD of MS2 coat protein” value is, setting by setting: (input ligand: FMN 200 uM) 49.9 nM; (input ligand: none) 43.4 nM.

As to “ACAUGACUAGGAUAUACAUGAGGAUCACCCAUGUGACCACAAACAUGCUAUAUGGGCAGUAGAAGGAGUUGGAA [Eternabot (L1) Solution 86] (Eterna round: R97, puzzle: Exclusion 3)”, the “apparent KD of MS2 coat protein” value (input ligand: FMN 200 uM) is 82.9 nM and the “apparent KD of MS2 coat protein” value (input ligand: none) turned out to be 75.9 nM.

As for “AUACUCGUUGUGAGGAUAUCGUUUUCUUUACGGAUCGAGAAGGCACAUGAGGAUCACCCAUGUUUGACGUGAAU [JR_BMOE4_Sub093] (puzzle: Brourd's mod of Exclusion 4)”, under setting [2], the “apparent KD of MS2 coat protein” value worked out at 30.8 nM.
